Square brackets hold non-standard residues; d marks the D form. Phe(3,4-Cl2) = N[C@@H](Cc1ccc(Cl)c(Cl)c1)C(=O)O; Phe(4-Br) = N[C@@H](Cc1ccc(Br)cc1)C(=O)O; Phe(4-Cl) = N[C@@H](Cc1ccc(Cl)cc1)C(=O)O; Phe(4-Me) = Cc1ccc(C[C@H](N)C(=O)O)cc1; Cha = N[C@@H](CC1CCCCC1)C(=O)O
Columns and labels:
[1] = target: E. coli β clamp (β subunit of DNA polymerase III, dnaN gene product), N-tagged (E. coli) (UniProt P0A988); assay: ITC
[2] = target: E. coli β clamp (β subunit of DNA polymerase III, dnaN gene product), N-tagged (E. coli) (UniProt P0A988)
[3] = target: E. coli β clamp (β subunit of DNA polymerase III, dnaN gene product), N-tagged (E. coli) (UniProt P0A988); assay: ITC / SPR
[4] = target: E. coli β clamp (β subunit of DNA polymerase III, dnaN gene product), N-tagged (E. coli) (UniProt P0A988); assay: ITC, peptide 400 µM into β ring 20 or 30 µM, 25° C
[5] = target: E. coli β clamp (β subunit of DNA polymerase III, dnaN gene product), N-tagged (E. coli) (UniProt P0A988); assay: SPR competition on immobilised P1
[6] = target: E. coli β clamp (β subunit of DNA polymerase III, dnaN gene product), N-tagged (E. coli) (UniProt P0A988); assay: SPR competition on immobilised P1; ΔG = -RT ln Ki
[7] = target: E. coli β clamp (β subunit of DNA polymerase III, dnaN gene product) (E. coli) (UniProt P0A988); assay: ITC, peptide 400 µM into β ring 30 µM, 25 °C
[8] = target: E. coli β clamp (β subunit of DNA polymerase III, dnaN gene product), N-tagged (E. coli) (UniProt P0A988); assay: SPR competition (Biacore 3000): β ring 0.25 µM mixed with the challenger, injected on immobilised P1
[9] = target: E. coli β clamp (β subunit of DNA polymerase III, dnaN gene product) (E. coli) (UniProt P0A988); assay: ITC, peptide 400 µM into β ring 30 µM, 25 °C, second experiment
[10] = target: E. coli β clamp (β subunit of DNA polymerase III, dnaN gene product) (E. coli) (UniProt P0A988); assay: SPR competition, β ring on immobilised P1
[11] = target: T1, E. coli β clamp (β subunit of DNA polymerase III, dnaN gene product) (E. coli, UniProt P0A988 1-366); assay: from ITC data; compared residues F/pBrF
T1 construct: Expressed in BL21 E. coli from pET15b with an N-terminal tag; also called β ring; β protein; not shown: N-terminal tag from plasmid pET15b ('N-tagged protein', purified on Ni-NTA)

[12] = target: T1, E. coli β clamp (β subunit of DNA …); assay: SPR competition, β ring on immobilised P1
[13] = target: T1, E. coli β clamp (β subunit of DNA …); assay: ITC, peptide 400 µM into β ring 20 µM, 25 °C
[14] = target: T1, E. coli β clamp (β subunit of DNA …); assay: from ITC data; compared residues pMeF/pBrF
[15] = target: T1, E. coli β clamp (β subunit of DNA …); assay: ITC, peptide 400 µM into β ring 20 µM, 25 °C, second experiment
[16] = target: T2, E. coli β clamp (β subunit of DNA polymerase III, dnaN gene product), N-tagged (E. coli, UniProt P0A988 1-366); assay: ITC, peptide 400 µM into β ring 30 µM, 25° C
T2 construct: The dnaN gene was cloned in pET15b and expressed in BL21 E. coli; also called β ring; β protein; not shown: N-terminal tag from the pET15b vector (N-tagged protein, enriched on Ni-NTA)

[17] = target: T2, E. coli β clamp (β subunit of DNA …); assay: SPR competition on immobilised P1
[18] = target: T2, E. coli β clamp (β subunit of DNA …); assay: SPR competition on immobilised P1; ΔG = -RT ln Ki
[19] = target: T2, E. coli β clamp (β subunit of DNA …); assay: SPR direct binding: β protein (0.125 µM to 2 µM) injected on immobilised P1, 1:1 Langmuir model
[20] = target: T2, E. coli β clamp (β subunit of DNA …); assay: SPR competition (Biacore 3000): β ring 0.25 µM mixed with the challenger, injected on immobilised P1
[21] = target: T1, E. coli β clamp (β subunit of DNA …); assay: from ITC data; compared residues F/pMeF
[22] = target: T2, E. coli β clamp (β subunit of DNA …); assay: cell-based or functional assay
[23] = target: T2, E. coli β clamp (β subunit of DNA …); assay: SPR competition against P1
[24] = target: T1, E. coli β clamp (β subunit of DNA …); assay: ITC, peptide 400 µM into β ring 30 µM, 25 °C
[25] = target: T1, E. coli β clamp (β subunit of DNA …); assay: ITC, peptide 400 µM into β ring 30 µM, 25 °C, second experiment
[26] = target: T1, E. coli β clamp (β subunit of DNA …); assay: from ITC data; compared residues L/Cha
[27] = target: T1, E. coli β clamp (β subunit of DNA …); assay: SPR competition, concentration of peptide that challenges 50% of the binding of β ring to P1
[28] = target: T1, E. coli β clamp (β subunit of DNA …); assay: from ITC data; compared residues F/pClF
[29] = target: T1, E. coli β clamp (β subunit of DNA …); assay: from ITC data; compared residues pBrF/pClF
[30] = target: T1, E. coli β clamp (β subunit of DNA …); assay: from ITC data; compared residues pMeF/pClF
[31] = target: T1, E. coli β clamp (β subunit of DNA …); assay: from ITC data; compared residues pBrF/diClF
[32] = target: T1, E. coli β clamp (β subunit of DNA …); assay: from ITC data; compared residues F/diClF
[33] = target: T1, E. coli β clamp (β subunit of DNA …); assay: from ITC data; compared residues pClF/diClF
[34] = target: T1, E. coli β clamp (β subunit of DNA …); assay: from ITC data; compared residues pMeF/diClF

T2 sequence (P0A988 whole entry): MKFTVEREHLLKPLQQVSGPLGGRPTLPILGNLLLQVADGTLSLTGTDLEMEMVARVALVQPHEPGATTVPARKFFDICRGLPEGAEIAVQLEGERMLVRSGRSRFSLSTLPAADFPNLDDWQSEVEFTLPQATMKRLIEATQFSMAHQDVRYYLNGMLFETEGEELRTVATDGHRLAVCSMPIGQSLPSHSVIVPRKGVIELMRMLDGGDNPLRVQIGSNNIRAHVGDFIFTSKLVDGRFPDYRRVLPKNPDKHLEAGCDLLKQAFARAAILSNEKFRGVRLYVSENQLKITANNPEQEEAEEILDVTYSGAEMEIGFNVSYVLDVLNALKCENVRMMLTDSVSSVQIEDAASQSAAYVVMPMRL
E. coli β clamp (β subunit of DNA polymerase III, dnaN gene product) (E. coli), sequence (P0A988 whole entry): as above
E. coli β clamp (β subunit of DNA polymerase III, dnaN gene product), N-tagged (E. coli), sequence (P0A988 whole entry): as above
T1 sequence (P0A988 whole entry): as above

P14 (Ac-Q Cha DL diClF) (peptide)
Kd [1]: 60 nM
IC50, Pol IV based biochemical assay (inhibition of β dependent Pol IV elongation) [2]: 125 nM
fold increase in binding against P6 [3]: 10 to 15 fold
Kd [4]: 65 nM
IC50 [5]: 70 nM
fold increase against P1 [5]: 115 fold
fold increase against P6 [5]: 15 fold
fold increase against the full PolIV enzyme [5]: 4 fold

P3 (RQLVLF) (peptide; other documents disagree on this pair)
ΔG [6]: -7.04 kcal/mol
Kd [7]: 2820 nM
ΔG [7]: -7.5 kcal/mol
ΔH [7]: -5.77 kcal/mol
ΔS [7]: 6.05 cal/mol/deg
IC50 [8]: 8620 nM
Kd [9]: 2320 nM
ΔG [9]: -7.6 kcal/mol
ΔH [9]: -5.7 kcal/mol
ΔS [9]: 6.6 cal/mol/deg
IC50 [10]: 8620 nM

B1: P13 (Ac-Gln-Cha-Asp-Leu-pBrPhe-OH) (peptide)
peptide: Ac-Q[Cha]DL[Phe(4-Br)]-OH
SMILES: CC(=O)N[C@@H](CCC(N)=O)C(=O)N[C@@H](CC1CCCCC1)C(=O)N[C@@H](CC(=O)O)C(=O)N[C@@H](CC(C)C)C(=O)N[C@@H](Cc1ccc(Br)cc1)C(=O)O
notes: also called AcQChaDLpBrF; Ac-Q Cha DL pBrF
ΔΔG (ΔGj - ΔGi) of P13 against P7 [11]: -0.28 kcal/mol
IC50 [12]: 96 nM
Kd [13]: 136 nM
ΔG [13]: -9.3 kcal/mol
ΔH [13]: -18.1 kcal/mol
ΔS [13]: -29.3 cal/mol/deg
ΔΔG (ΔGj - ΔGi) of P13 against P11 [14]: -0.53 kcal/mol
Kd [15]: 167 nM
ΔG [15]: -9.1 kcal/mol
ΔH [15]: -15.2 kcal/mol
ΔS [15]: -20.2 cal/mol/deg

B2: P1, natural C-terminal heptapeptide of E. coli DNA polymerase IV (RQLVLGL) (peptide)
peptide: H-RQLVLGL-OH
notes: Used free in solution as challenger and immobilised on the SPR chip; the way of immobilisation is not described; also called natural Cter heptamer; natural heptapeptide
Kd [16]: 1000 to 2000 nM
fold less efficient binding than the whole polymerase (PolIV) [17]: 30 fold
ΔG [18]: -7.06 kcal/mol
Kd [19]: 285 nM
IC50 [20]: 8850 nM

B3: P11 (Ac-Gln-Cha-Asp-Leu-pMePhe-OH) (peptide)
peptide: Ac-Q[Cha]DL[Phe(4-Me)]-OH
SMILES: CC(=O)N[C@@H](CCC(N)=O)C(=O)N[C@@H](CC1CCCCC1)C(=O)N[C@@H](CC(=O)O)C(=O)N[C@@H](CC(C)C)C(=O)N[C@@H](Cc1ccc(C)cc1)C(=O)O
notes: also called AcQChaDLpMeF; Ac-Q Cha DL pMeF
IC50 [12]: 260 nM
Kd [13]: 401 nM
ΔG [13]: -8.6 kcal/mol
ΔH [13]: -14.8 kcal/mol
ΔS [13]: -20.4 cal/mol/deg
ΔΔG (ΔGj - ΔGi) of P11 against P7 [21]: 0.25 kcal/mol
Kd [15]: 362 nM
ΔG [15]: -8.6 kcal/mol
ΔH [15]: -14.4 kcal/mol
ΔS [15]: -19 cal/mol/deg

B4: P7 (Ac Q Cha DLF) (peptide)
peptide: Ac-Q[Cha]DLF-OH
SMILES: CC(=O)N[C@@H](CCC(N)=O)C(=O)N[C@@H](CC1CCCCC1)C(=O)N[C@@H](CC(=O)O)C(=O)N[C@@H](CC(C)C)C(=O)N[C@@H](Cc1ccccc1)C(=O)O
notes: also called Ac-Gln-Cha-Asp-Leu-Phe-OH
IC50, Pol IV based biochemical assay (inhibition of β dependent Pol IV elongation) [22]: 2800 nM
fold increase in the interaction against P6 [17]: 6 fold
fold decrease in affinity against P14 [23]: 2 fold

B5: P7 (Ac-Gln-Cha-Asp-Leu-Phe-OH) (peptide)
peptide: Ac-Q[Cha]DLF-OH
SMILES: CC(=O)N[C@@H](CCC(N)=O)C(=O)N[C@@H](CC1CCCCC1)C(=O)N[C@@H](CC(=O)O)C(=O)N[C@@H](CC(C)C)C(=O)N[C@@H](Cc1ccccc1)C(=O)O
notes: also called AcQChaDLF; Ac Q Cha D L F
Kd [24]: 246 nM
ΔG [24]: -8.9 kcal/mol
ΔH [24]: -21.3 kcal/mol
ΔS [24]: -41.2 cal/mol/deg
Kd [25]: 222 nM
ΔG [25]: -8.9 kcal/mol
ΔH [25]: -20.5 kcal/mol
ΔS [25]: -38.5 cal/mol/deg
ΔΔG (ΔGj - ΔGi) of P7 against P6 [26]: -0.66 kcal/mol
Ki [27]: 170 nM
IC50 [12]: 170 nM

B6: P12 (Ac-Gln-Cha-Asp-Leu-pClPhe-OH) (peptide)
peptide: Ac-Q[Cha]DL[Phe(4-Cl)]-OH
SMILES: CC(=O)N[C@@H](CCC(N)=O)C(=O)N[C@@H](CC1CCCCC1)C(=O)N[C@@H](CC(=O)O)C(=O)N[C@@H](CC(C)C)C(=O)N[C@@H](Cc1ccc(Cl)cc1)C(=O)O
notes: also called AcQChaDLpClF; Ac-Q Cha DL pClF
ΔΔG (ΔGj - ΔGi) of P12 against P7 [28]: -0.6 kcal/mol
ΔΔG (ΔGj - ΔGi) of P12 against P13 [29]: -0.32 kcal/mol
IC50 [12]: 160 nM
Kd [13]: 89 nM
ΔG [13]: -9.6 kcal/mol
ΔH [13]: -15 kcal/mol
ΔS [13]: -18.1 cal/mol/deg
ΔΔG (ΔGj - ΔGi) of P12 against P11 [30]: -0.85 kcal/mol
Kd [15]: 122 nM
ΔG [15]: -9.4 kcal/mol
ΔH [15]: -14.3 kcal/mol
ΔS [15]: -16.3 cal/mol/deg

B7: P14 (Ac-Gln-Cha-Asp-Leu-(3,4-di-Cl)Phe-OH) (peptide)
peptide: Ac-Q[Cha]DL[Phe(3,4-Cl2)]-OH
SMILES: CC(=O)N[C@@H](CCC(N)=O)C(=O)N[C@@H](CC1CCCCC1)C(=O)N[C@@H](CC(=O)O)C(=O)N[C@@H](CC(C)C)C(=O)N[C@@H](Cc1ccc(Cl)c(Cl)c1)C(=O)O
notes: also called AcQChaDLdiClF; Ac Q Cha D L diClF
ΔΔG (ΔGj - ΔGi) of P14 against P13 [31]: -0.52 kcal/mol
ΔΔG (ΔGj - ΔGi) of P14 against P7 [32]: -0.8 kcal/mol
Ki [27]: 85 nM
IC50 [12]: 77 nM
ΔΔG (ΔGj - ΔGi) of P14 against P12 [33]: -0.2 kcal/mol
Kd [13]: 73 nM
ΔG [13]: -9.6 kcal/mol
ΔH [13]: -18.9 kcal/mol
ΔS [13]: -30.8 cal/mol/deg
ΔΔG (ΔGj - ΔGi) of P14 against P11 [34]: -1.05 kcal/mol
Kd [15]: 55 nM
ΔG [15]: -9.8 kcal/mol
ΔH [15]: -18.1 kcal/mol
ΔS [15]: -27.6 cal/mol/deg
